{
  "source": "the RNAGym collection of RNA variant scans (doi:10.1093/nar/gkz1192)",
  "parents": {"B1": {"name": "CPEB3 Ribozyme (parent)", "chain": "UAACAGGGGGCCACAGCAGAAGCGUUCACGUCGCAGCCCCUGUCAGAUUCUGGUGAAUCUGCGAAUUCUGCUGUAUAUCUC"}},
  "data": [
    {"variants_of": "B1", "assay": "self-cleavage, relative activity (ratio to wild type); higher = more cleavage; in vitro, sequencing", "in_short": "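Relative activity compares each variant's cleaved/total read fraction with that of the unmutated ribozyme. To get these fractions, barcoded CPEB3 ribozyme libraries from rounds of error-prone PCR were transcribed with T7 RNA polymerase for 5 hours at 37°C and then given 15 min of DNase I treatment before EDTA was added. The RNAs were reverse transcribed with template switching and sequenced on Illumina, and DNA sequencing linked barcodes to variants. A minimum of 5 reads applied, and three batches were averaged.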", "values": [
      {"variant": "G24C U66C", "self-cleavage": 0.26},
      {"variant": "G24A A65G", "self-cleavage": 0.28},
      {"variant": "U25A", "self-cleavage": 0.3},
      {"variant": "G24C U76C", "self-cleavage": 0.2},
      {"variant": "G24A U31C", "self-cleavage": 0.15},
      {"variant": "G24A U31A", "self-cleavage": 0.2},
      {"variant": "G24A C62U", "self-cleavage": 0.18},
      {"variant": "G24A U26C", "self-cleavage": 0.3},
      {"variant": "G24A U26A", "self-cleavage": 0.16},
      {"variant": "G24A G53A", "self-cleavage": 0.53},
      {"variant": "G24C G42A", "self-cleavage": 0.32},
      {"variant": "G24A G52U", "self-cleavage": 0.37},
      {"variant": "G24A G52A", "self-cleavage": 0.21},
      {"variant": "C23U A77G", "self-cleavage": 0.34},
      {"variant": "C23U A77U", "self-cleavage": 0.23},
      {"variant": "G24U U26C", "self-cleavage": 0.11},
      {"variant": "G24U A28G", "self-cleavage": 0.17},
      {"variant": "G24U C38U", "self-cleavage": 0.1},
      {"variant": "G24A C32A", "self-cleavage": 0.29},
      {"variant": "G24C U31G", "self-cleavage": 0.34},
      {"variant": "G24C U31A", "self-cleavage": 0.19},
      {"variant": "G24C U31C", "self-cleavage": 0.1},
      {"variant": "G24C U49C", "self-cleavage": 0.46},
      {"variant": "G24U A35U", "self-cleavage": 0.19},
      {"variant": "G24U A35G", "self-cleavage": 0.9},
      {"variant": "C23U C32U", "self-cleavage": 0.14},
      {"variant": "C23U C44A", "self-cleavage": 0.38},
      {"variant": "C23G U49C", "self-cleavage": 0.16},
      {"variant": "C23U G46A", "self-cleavage": 0.06},
      {"variant": "C23U U48C", "self-cleavage": 0.14},
      {"variant": "G24A C71U", "self-cleavage": 0.36},
      {"variant": "G24A C71G", "self-cleavage": 0.09},
      {"variant": "G24A U78A", "self-cleavage": 0.07},
      {"variant": "G24A U78C", "self-cleavage": 0.33},
      {"variant": "G24A U78G", "self-cleavage": 0.16},
      {"variant": "G24A A45G", "self-cleavage": 0.24},
      {"variant": "G24A A45U", "self-cleavage": 0.25},
      {"variant": "G24A A45C", "self-cleavage": 0.36},
      {"variant": "G24U U31C", "self-cleavage": 0.37},
      {"variant": "C23U A75G", "self-cleavage": 0.27},
      {"variant": "C23G U31C", "self-cleavage": 0.41},
      {"variant": "C23G A45G", "self-cleavage": 0.21},
      {"variant": "G24A A77U", "self-cleavage": 0.46},
      {"variant": "G24A A77G", "self-cleavage": 0.23},
      {"variant": "C23A U80G", "self-cleavage": 0.51},
      {"variant": "C23A U80A", "self-cleavage": 0.23},
      {"variant": "C23A U80C", "self-cleavage": 0.12},
      {"variant": "G24C G63A", "self-cleavage": 0.18},
      {"variant": "C23U U60C", "self-cleavage": 0.15},
      {"variant": "C23U U60A", "self-cleavage": 0.26},
      {"variant": "G24A U58A", "self-cleavage": 0.34},
      {"variant": "G24A U58C", "self-cleavage": 0.12},
      {"variant": "G24C U58C", "self-cleavage": 0.2},
      {"variant": "G24C U54A", "self-cleavage": 0.13},
      {"variant": "G24C U54C", "self-cleavage": 0.14},
      {"variant": "G24A A57G", "self-cleavage": 0.15},
      {"variant": "G24A A57C", "self-cleavage": 0.15},
      {"variant": "G24C A28U", "self-cleavage": 0.28},
      {"variant": "G24C A28G", "self-cleavage": 0.41},
      {"variant": "C23A U78C", "self-cleavage": 0.12},
      {"variant": "C23A U78A", "self-cleavage": 0.21},
      {"variant": "C23A U78G", "self-cleavage": 0.08},
      {"variant": "C23U U25C", "self-cleavage": 0.19},
      {"variant": "C23U U25A", "self-cleavage": 0.14},
      {"variant": "G24A U69G", "self-cleavage": 0.13},
      {"variant": "G24A U69C", "self-cleavage": 0.32},
      {"variant": "G24A U69A", "self-cleavage": 0.25},
      {"variant": "G24C U43C", "self-cleavage": 0.18},
      {"variant": "G24C U43A", "self-cleavage": 0.54},
      {"variant": "G24A C27U", "self-cleavage": 0.3},
      {"variant": "G24A C27A", "self-cleavage": 0.18},
      {"variant": "C23G U67C", "self-cleavage": 0.12},
      {"variant": "C23G U67A", "self-cleavage": 0.25},
      {"variant": "G24A A64G", "self-cleavage": 0.36},
      {"variant": "G24A A64U", "self-cleavage": 0.28},
      {"variant": "C23G U66C", "self-cleavage": 0.15},
      {"variant": "G24A G73A", "self-cleavage": 0.14},
      {"variant": "G24A G73C", "self-cleavage": 0.4},
      {"variant": "G24U U72A", "self-cleavage": 0.11},
      {"variant": "G24U U72C", "self-cleavage": 0.52},
      {"variant": "G24U U41A", "self-cleavage": 0.23},
      {"variant": "G24A U25A", "self-cleavage": 0.26},
      {"variant": "G24A U25C", "self-cleavage": 0.25},
      {"variant": "G24A C44U", "self-cleavage": 0.18},
      {"variant": "G24A U74A", "self-cleavage": 0.18},
      {"variant": "G24A U74G", "self-cleavage": 0.13},
      {"variant": "C23U C38U", "self-cleavage": 0.13},
      {"variant": "C23U C38A", "self-cleavage": 0.16},
      {"variant": "C23G A35U", "self-cleavage": 0.19},
      {"variant": "C23G", "self-cleavage": 0.26},
      {"variant": "C23U", "self-cleavage": 0.35},
      {"variant": "C23U C27U", "self-cleavage": 0.31},
      {"variant": "C23G C29U", "self-cleavage": 0.36},
      {"variant": "C23G C29G", "self-cleavage": 0.08},
      {"variant": "G24U U51C", "self-cleavage": 0.2},
      {"variant": "G24U U51A", "self-cleavage": 0.1},
      {"variant": "C23G U72A", "self-cleavage": 0.04},
      {"variant": "C23G U72C", "self-cleavage": 0.13},
      {"variant": "G24A U43C", "self-cleavage": 0.32},
      {"variant": "G24A U43A", "self-cleavage": 0.17},
      {"variant": "G24A C39U", "self-cleavage": 0.17},
      {"variant": "G24C G73A", "self-cleavage": 0.16},
      {"variant": "G24C U67C", "self-cleavage": 0.11},
      {"variant": "G24C U67A", "self-cleavage": 0.21},
      {"variant": "G24U U25A", "self-cleavage": 0.3},
      {"variant": "G24C U25A", "self-cleavage": 0.21},
      {"variant": "C23G U25C", "self-cleavage": 0.28},
      {"variant": "C23G A75G", "self-cleavage": 0.14},
      {"variant": "C23G A75U", "self-cleavage": 0.07},
      {"variant": "G24A C29G", "self-cleavage": 0.21},
      {"variant": "C23U C34U", "self-cleavage": 0.36},
      {"variant": "U25A A65G", "self-cleavage": 0.28},
      {"variant": "U25A A65C", "self-cleavage": 0.08},
      {"variant": "G24U U60A", "self-cleavage": 0.16},
      {"variant": "G24U U48C", "self-cleavage": 0.12},
      {"variant": "G24C U69C", "self-cleavage": 0.17},
      {"variant": "G24C U69A", "self-cleavage": 0},
      {"variant": "C23G A64U", "self-cleavage": 0.26},
      {"variant": "C23G A64G", "self-cleavage": 0.08},
      {"variant": "G24A U80A", "self-cleavage": 0.24},
      {"variant": "G24A U80C", "self-cleavage": 0.59},
      {"variant": "C23U G24A", "self-cleavage": 0.22},
      {"variant": "C23U U76C", "self-cleavage": 0.4},
      {"variant": "C23U U76A", "self-cleavage": 0.22},
      {"variant": "C23U U66C", "self-cleavage": 0.15},
      {"variant": "C23G A47G", "self-cleavage": 0.28},
      {"variant": "G24U", "self-cleavage": 0.3},
      {"variant": "G24C", "self-cleavage": 0.31},
      {"variant": "G24A", "self-cleavage": 0.27},
      {"variant": "C23G U74C", "self-cleavage": 0.41},
      {"variant": "C23G U74A", "self-cleavage": 0.28},
      {"variant": "G24A G36A", "self-cleavage": 0.15},
      {"variant": "G24A G36U", "self-cleavage": 0.1},
      {"variant": "C23A U74A", "self-cleavage": 0.23},
      {"variant": "C23U U51A", "self-cleavage": 0.2},
      {"variant": "C23U U51C", "self-cleavage": 0.07},
      {"variant": "G24A C40U", "self-cleavage": 0.1},
      {"variant": "C23U U69C", "self-cleavage": 0.19},
      {"variant": "C23U U69A", "self-cleavage": 0.1},
      {"variant": "C23U U72C", "self-cleavage": 0.48},
      {"variant": "C23U U72A", "self-cleavage": 0.22},
      {"variant": "C23U U72G", "self-cleavage": 0.1},
      {"variant": "C23A U76C", "self-cleavage": 0.21},
      {"variant": "G24U A64U", "self-cleavage": 0.3},
      {"variant": "G24U A64G", "self-cleavage": 0.18},
      {"variant": "C23U U78C", "self-cleavage": 0.27},
      {"variant": "C23U C62G", "self-cleavage": 0.09},
      {"variant": "C23G U48C", "self-cleavage": 0.29},
      {"variant": "C23G G63U", "self-cleavage": 0.32},
      {"variant": "C23G U51A", "self-cleavage": 0.16},
      {"variant": "C23G U51G", "self-cleavage": 0.5},
      {"variant": "C23U A65G", "self-cleavage": 0.43},
      {"variant": "G24A U49A", "self-cleavage": 0.39},
      {"variant": "G24A U49C", "self-cleavage": 0.21},
      {"variant": "G24C G30C", "self-cleavage": 0.11},
      {"variant": "G24A G30A", "self-cleavage": 0.24},
      {"variant": "C23U U41A", "self-cleavage": 0.12},
      {"variant": "C23U U41C", "self-cleavage": 0.27},
      {"variant": "C23U C29U", "self-cleavage": 0.21},
      {"variant": "C23U A45C", "self-cleavage": 0.45},
      {"variant": "C23U A45U", "self-cleavage": 0.27},
      {"variant": "C23U A45G", "self-cleavage": 0.25},
      {"variant": "G24C U51A", "self-cleavage": 0.3},
      {"variant": "G24C U51C", "self-cleavage": 0.32},
      {"variant": "G24U U80C", "self-cleavage": 0.41},
      {"variant": "G24U U80A", "self-cleavage": 0.22},
      {"variant": "U25A A64G", "self-cleavage": 0.33}
    ]}
  ]
}
